Data on seven molecules can be found in US11130793B2, “GLP-1/GLP-2 dual agonists” (Zealand Pharma A/S, priority 2016, dated 2021).

Square brackets hold non-standard residues; d marks the D form. Aib = CC(C)(N)C(=O)O

Test [1] concerns the target T1, human GLP-2 receptor (hGLP2-R) (human, UniProt O95838).
T1 sequence: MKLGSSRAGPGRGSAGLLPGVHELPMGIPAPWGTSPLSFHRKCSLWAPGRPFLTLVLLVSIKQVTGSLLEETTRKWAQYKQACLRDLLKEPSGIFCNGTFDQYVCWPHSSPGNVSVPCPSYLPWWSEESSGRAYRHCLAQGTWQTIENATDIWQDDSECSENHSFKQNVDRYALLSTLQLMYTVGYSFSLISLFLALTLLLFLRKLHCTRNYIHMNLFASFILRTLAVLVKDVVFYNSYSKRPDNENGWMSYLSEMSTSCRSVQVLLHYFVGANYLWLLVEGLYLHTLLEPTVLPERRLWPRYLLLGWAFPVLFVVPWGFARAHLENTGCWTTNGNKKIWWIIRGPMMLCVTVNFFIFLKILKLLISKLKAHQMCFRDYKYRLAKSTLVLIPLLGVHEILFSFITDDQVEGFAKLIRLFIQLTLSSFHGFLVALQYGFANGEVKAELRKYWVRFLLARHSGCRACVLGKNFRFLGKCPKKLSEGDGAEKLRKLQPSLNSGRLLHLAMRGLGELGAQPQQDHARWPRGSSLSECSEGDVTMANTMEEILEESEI
Kind of test: cell-based or functional assay.

Test [2] concerns the target human glucagon-like peptide 1 receptor (GLP-1R) (human, UniProt P43220). Kind of test: cell-based or functional assay.

B1: Compound 16 (peptide)
peptide: H-H[Aib]EGTFTSELATILDEQAARDFIAWLIKHKITD-OH
SMILES: CC[C@H](C)[C@H](NC(=O)[C@H](Cc1ccccc1)NC(=O)[C@H](CC(=O)O)NC(=O)[C@H](CCCNC(=N)N)NC(=O)[C@H](C)NC(=O)[C@H](C)NC(=O)[C@H](CCC(N)=O)NC(=O)[C@H](CCC(=O)O)NC(=O)[C@H](CC(=O)O)NC(=O)[C@H](CC(C)C)NC(=O)[C@@H](NC(=O)[C@@H](NC(=O)[C@H](C)NC(=O)[C@H](CC(C)C)NC(=O)[C@H](CCC(=O)O)NC(=O)[C@H](CO)NC(=O)[C@@H](NC(=O)[C@H](Cc1ccccc1)NC(=O)[C@@H](NC(=O)CNC(=O)[C@H](CCC(=O)O)NC(=O)C(C)(C)NC(=O)[C@@H](N)Cc1c[nH]cn1)[C@@H](C)O)[C@@H](C)O)[C@@H](C)O)[C@@H](C)CC)C(=O)N[C@@H](C)C(=O)N[C@@H](Cc1c[nH]c2ccccc12)C(=O)N[C@@H](CC(C)C)C(=O)N[C@H](C(=O)N[C@@H](CCCCN)C(=O)N[C@@H](Cc1c[nH]cn1)C(=O)N[C@@H](CCCCN)C(=O)N[C@H](C(=O)N[C@H](C(=O)N[C@@H](CC(=O)O)C(=O)O)[C@@H](C)O)[C@@H](C)CC)[C@@H](C)CC
Regarding B1, the “EC50 GLP-2 (nM); cAMP AlphaScreen” value in test [1] was determined as 0.026 nM. Moreover, the “EC50 GLP-1 (nM); cAMP AlphaScreen” value in test [2] came to 0.006 nM.

B2: Compound 15 (peptide)
peptide: H-H[Aib]EGTFTSELATILDEQAARDFIAWLIQHKITD-OH
SMILES: CC[C@H](C)[C@H](NC(=O)[C@H](Cc1ccccc1)NC(=O)[C@H](CC(=O)O)NC(=O)[C@H](CCCNC(=N)N)NC(=O)[C@H](C)NC(=O)[C@H](C)NC(=O)[C@H](CCC(N)=O)NC(=O)[C@H](CCC(=O)O)NC(=O)[C@H](CC(=O)O)NC(=O)[C@H](CC(C)C)NC(=O)[C@@H](NC(=O)[C@@H](NC(=O)[C@H](C)NC(=O)[C@H](CC(C)C)NC(=O)[C@H](CCC(=O)O)NC(=O)[C@H](CO)NC(=O)[C@@H](NC(=O)[C@H](Cc1ccccc1)NC(=O)[C@@H](NC(=O)CNC(=O)[C@H](CCC(=O)O)NC(=O)C(C)(C)NC(=O)[C@@H](N)Cc1c[nH]cn1)[C@@H](C)O)[C@@H](C)O)[C@@H](C)O)[C@@H](C)CC)C(=O)N[C@@H](C)C(=O)N[C@@H](Cc1c[nH]c2ccccc12)C(=O)N[C@@H](CC(C)C)C(=O)N[C@H](C(=O)N[C@@H](CCC(N)=O)C(=O)N[C@@H](Cc1c[nH]cn1)C(=O)N[C@@H](CCCCN)C(=O)N[C@H](C(=O)N[C@H](C(=O)N[C@@H](CC(=O)O)C(=O)O)[C@@H](C)O)[C@@H](C)CC)[C@@H](C)CC
For B2, in test [1], the “EC50 GLP-2 (nM); cAMP AlphaScreen” value turned out to be 0.038 nM. Further, the “EC50 GLP-1 (nM); cAMP AlphaScreen” value in test [2] came to 0.005 nM.

B3: Compound 18 (peptide)
peptide: H-H[Aib]EGTFTSELATILDEQAARDFIAWLISHKITD-OH
SMILES: CC[C@H](C)[C@H](NC(=O)[C@H](Cc1ccccc1)NC(=O)[C@H](CC(=O)O)NC(=O)[C@H](CCCNC(=N)N)NC(=O)[C@H](C)NC(=O)[C@H](C)NC(=O)[C@H](CCC(N)=O)NC(=O)[C@H](CCC(=O)O)NC(=O)[C@H](CC(=O)O)NC(=O)[C@H](CC(C)C)NC(=O)[C@@H](NC(=O)[C@@H](NC(=O)[C@H](C)NC(=O)[C@H](CC(C)C)NC(=O)[C@H](CCC(=O)O)NC(=O)[C@H](CO)NC(=O)[C@@H](NC(=O)[C@H](Cc1ccccc1)NC(=O)[C@@H](NC(=O)CNC(=O)[C@H](CCC(=O)O)NC(=O)C(C)(C)NC(=O)[C@@H](N)Cc1c[nH]cn1)[C@@H](C)O)[C@@H](C)O)[C@@H](C)O)[C@@H](C)CC)C(=O)N[C@@H](C)C(=O)N[C@@H](Cc1c[nH]c2ccccc12)C(=O)N[C@@H](CC(C)C)C(=O)N[C@H](C(=O)N[C@@H](CO)C(=O)N[C@@H](Cc1c[nH]cn1)C(=O)N[C@@H](CCCCN)C(=O)N[C@H](C(=O)N[C@H](C(=O)N[C@@H](CC(=O)O)C(=O)O)[C@@H](C)O)[C@@H](C)CC)[C@@H](C)CC
For B3, the “EC50 GLP-2 (nM); cAMP AlphaScreen” value in test [1] was 0.054 nM. Besides, in test [2], the “EC50 GLP-1 (nM); cAMP AlphaScreen” value turned out to be 0.006 nM.

B4: Compound 17 (peptide)
peptide: H-H[Aib]EGTFTSELATILDEQAARDFIAWLIRHKITD-OH
SMILES: CC[C@H](C)[C@H](NC(=O)[C@H](Cc1ccccc1)NC(=O)[C@H](CC(=O)O)NC(=O)[C@H](CCCNC(=N)N)NC(=O)[C@H](C)NC(=O)[C@H](C)NC(=O)[C@H](CCC(N)=O)NC(=O)[C@H](CCC(=O)O)NC(=O)[C@H](CC(=O)O)NC(=O)[C@H](CC(C)C)NC(=O)[C@@H](NC(=O)[C@@H](NC(=O)[C@H](C)NC(=O)[C@H](CC(C)C)NC(=O)[C@H](CCC(=O)O)NC(=O)[C@H](CO)NC(=O)[C@@H](NC(=O)[C@H](Cc1ccccc1)NC(=O)[C@@H](NC(=O)CNC(=O)[C@H](CCC(=O)O)NC(=O)C(C)(C)NC(=O)[C@@H](N)Cc1c[nH]cn1)[C@@H](C)O)[C@@H](C)O)[C@@H](C)O)[C@@H](C)CC)C(=O)N[C@@H](C)C(=O)N[C@@H](Cc1c[nH]c2ccccc12)C(=O)N[C@@H](CC(C)C)C(=O)N[C@H](C(=O)N[C@@H](CCCNC(=N)N)C(=O)N[C@@H](Cc1c[nH]cn1)C(=O)N[C@@H](CCCCN)C(=O)N[C@H](C(=O)N[C@H](C(=O)N[C@@H](CC(=O)O)C(=O)O)[C@@H](C)O)[C@@H](C)CC)[C@@H](C)CC
Consider B4, for which the “EC50 GLP-2 (nM); cAMP AlphaScreen” value in test [1] is 0.066 nM. The “EC50 GLP-1 (nM); cAMP AlphaScreen” value in test [2] is 0.006 nM.

B5: Compound 19 (peptide)
peptide: H-H[Aib]EGTFTSELATILDEQAARDFIAWLIAQKITD-OH
SMILES: CC[C@H](C)[C@H](NC(=O)[C@H](CC(C)C)NC(=O)[C@H](Cc1c[nH]c2ccccc12)NC(=O)[C@H](C)NC(=O)[C@@H](NC(=O)[C@H](Cc1ccccc1)NC(=O)[C@H](CC(=O)O)NC(=O)[C@H](CCCNC(=N)N)NC(=O)[C@H](C)NC(=O)[C@H](C)NC(=O)[C@H](CCC(N)=O)NC(=O)[C@H](CCC(=O)O)NC(=O)[C@H](CC(=O)O)NC(=O)[C@H](CC(C)C)NC(=O)[C@@H](NC(=O)[C@@H](NC(=O)[C@H](C)NC(=O)[C@H](CC(C)C)NC(=O)[C@H](CCC(=O)O)NC(=O)[C@H](CO)NC(=O)[C@@H](NC(=O)[C@H](Cc1ccccc1)NC(=O)[C@@H](NC(=O)CNC(=O)[C@H](CCC(=O)O)NC(=O)C(C)(C)NC(=O)[C@@H](N)Cc1c[nH]cn1)[C@@H](C)O)[C@@H](C)O)[C@@H](C)O)[C@@H](C)CC)[C@@H](C)CC)C(=O)N[C@@H](C)C(=O)N[C@@H](CCC(N)=O)C(=O)N[C@@H](CCCCN)C(=O)N[C@H](C(=O)N[C@H](C(=O)N[C@@H](CC(=O)O)C(=O)O)[C@@H](C)O)[C@@H](C)CC
Take B5: in test [1], the “EC50 GLP-2 (nM); cAMP AlphaScreen” value worked out at 0.15 nM. The “EC50 GLP-1 (nM); cAMP AlphaScreen” value in test [2] was 0.005 nM.

B6: Compound 13 (peptide)
peptide: H-H[Aib]EGTFTSELATILDEQAARDFIAWLQAHKITD-OH
SMILES: CC[C@H](C)[C@H](NC(=O)[C@H](Cc1ccccc1)NC(=O)[C@H](CC(=O)O)NC(=O)[C@H](CCCNC(=N)N)NC(=O)[C@H](C)NC(=O)[C@H](C)NC(=O)[C@H](CCC(N)=O)NC(=O)[C@H](CCC(=O)O)NC(=O)[C@H](CC(=O)O)NC(=O)[C@H](CC(C)C)NC(=O)[C@@H](NC(=O)[C@@H](NC(=O)[C@H](C)NC(=O)[C@H](CC(C)C)NC(=O)[C@H](CCC(=O)O)NC(=O)[C@H](CO)NC(=O)[C@@H](NC(=O)[C@H](Cc1ccccc1)NC(=O)[C@@H](NC(=O)CNC(=O)[C@H](CCC(=O)O)NC(=O)C(C)(C)NC(=O)[C@@H](N)Cc1c[nH]cn1)[C@@H](C)O)[C@@H](C)O)[C@@H](C)O)[C@@H](C)CC)C(=O)N[C@@H](C)C(=O)N[C@@H](Cc1c[nH]c2ccccc12)C(=O)N[C@@H](CC(C)C)C(=O)N[C@@H](CCC(N)=O)C(=O)N[C@@H](C)C(=O)N[C@@H](Cc1c[nH]cn1)C(=O)N[C@@H](CCCCN)C(=O)N[C@H](C(=O)N[C@H](C(=O)N[C@@H](CC(=O)O)C(=O)O)[C@@H](C)O)[C@@H](C)CC
For B6, in test [1], the “EC50 GLP-2 (nM); cAMP AlphaScreen” value was 0.083 nM. For the same molecule, the “EC50 GLP-1 (nM); cAMP AlphaScreen” value in test [2] was determined as 0.016 nM.

B7: Compound 14 (peptide)
peptide: H-H[Aib]EGTFTSELATILDEQAARDFIAWLYAHKITD-OH
SMILES: CC[C@H](C)[C@H](NC(=O)[C@H](Cc1ccccc1)NC(=O)[C@H](CC(=O)O)NC(=O)[C@H](CCCNC(=N)N)NC(=O)[C@H](C)NC(=O)[C@H](C)NC(=O)[C@H](CCC(N)=O)NC(=O)[C@H](CCC(=O)O)NC(=O)[C@H](CC(=O)O)NC(=O)[C@H](CC(C)C)NC(=O)[C@@H](NC(=O)[C@@H](NC(=O)[C@H](C)NC(=O)[C@H](CC(C)C)NC(=O)[C@H](CCC(=O)O)NC(=O)[C@H](CO)NC(=O)[C@@H](NC(=O)[C@H](Cc1ccccc1)NC(=O)[C@@H](NC(=O)CNC(=O)[C@H](CCC(=O)O)NC(=O)C(C)(C)NC(=O)[C@@H](N)Cc1c[nH]cn1)[C@@H](C)O)[C@@H](C)O)[C@@H](C)O)[C@@H](C)CC)C(=O)N[C@@H](C)C(=O)N[C@@H](Cc1c[nH]c2ccccc12)C(=O)N[C@@H](CC(C)C)C(=O)N[C@@H](Cc1ccc(O)cc1)C(=O)N[C@@H](C)C(=O)N[C@@H](Cc1c[nH]cn1)C(=O)N[C@@H](CCCCN)C(=O)N[C@H](C(=O)N[C@H](C(=O)N[C@@H](CC(=O)O)C(=O)O)[C@@H](C)O)[C@@H](C)CC
For the molecule B7, in test [1], the “EC50 GLP-2 (nM); cAMP AlphaScreen” value turned out to be 0.049 nM. In addition, the “EC50 GLP-1 (nM); cAMP AlphaScreen” value in test [2] was found to be 0.021 nM.
